For the assay, the target named is T1, Patched (Ptc) (Drosophila, UniProt P18502 1-1286).
T1 construct: whole, on cells; Endogenous protein in vivo
T1 sequence (looked up): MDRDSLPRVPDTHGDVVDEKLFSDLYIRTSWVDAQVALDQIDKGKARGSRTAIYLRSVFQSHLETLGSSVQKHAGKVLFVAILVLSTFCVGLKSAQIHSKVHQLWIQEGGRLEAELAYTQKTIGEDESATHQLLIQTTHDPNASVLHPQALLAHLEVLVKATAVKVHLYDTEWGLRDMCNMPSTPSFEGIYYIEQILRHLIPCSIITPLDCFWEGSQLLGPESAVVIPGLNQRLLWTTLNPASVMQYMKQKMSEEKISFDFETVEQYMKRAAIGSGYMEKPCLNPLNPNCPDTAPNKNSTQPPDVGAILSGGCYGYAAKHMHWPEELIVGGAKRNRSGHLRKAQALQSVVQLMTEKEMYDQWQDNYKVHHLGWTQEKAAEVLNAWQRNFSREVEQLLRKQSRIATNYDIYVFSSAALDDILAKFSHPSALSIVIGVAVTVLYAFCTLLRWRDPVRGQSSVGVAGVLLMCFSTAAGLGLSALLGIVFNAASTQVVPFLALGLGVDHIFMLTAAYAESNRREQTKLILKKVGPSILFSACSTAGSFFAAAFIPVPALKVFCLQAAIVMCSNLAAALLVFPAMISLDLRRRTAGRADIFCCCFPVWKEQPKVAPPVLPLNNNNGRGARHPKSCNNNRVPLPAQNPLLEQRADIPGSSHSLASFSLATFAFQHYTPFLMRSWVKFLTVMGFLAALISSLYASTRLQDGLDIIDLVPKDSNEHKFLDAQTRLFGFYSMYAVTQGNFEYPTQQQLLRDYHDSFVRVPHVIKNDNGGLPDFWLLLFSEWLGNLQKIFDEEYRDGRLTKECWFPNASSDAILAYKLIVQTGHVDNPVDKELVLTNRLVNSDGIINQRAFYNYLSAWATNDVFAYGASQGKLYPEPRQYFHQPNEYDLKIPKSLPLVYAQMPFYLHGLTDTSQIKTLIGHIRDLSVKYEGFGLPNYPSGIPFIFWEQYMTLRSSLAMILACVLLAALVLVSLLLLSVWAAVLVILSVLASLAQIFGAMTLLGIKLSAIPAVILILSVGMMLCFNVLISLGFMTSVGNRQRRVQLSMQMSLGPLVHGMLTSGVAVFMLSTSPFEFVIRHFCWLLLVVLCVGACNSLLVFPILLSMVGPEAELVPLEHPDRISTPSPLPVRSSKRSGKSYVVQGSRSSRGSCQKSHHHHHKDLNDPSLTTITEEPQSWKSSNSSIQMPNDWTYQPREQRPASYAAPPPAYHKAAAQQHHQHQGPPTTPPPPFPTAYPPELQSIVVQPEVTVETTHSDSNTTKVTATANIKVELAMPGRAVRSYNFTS
Description: in vivo immunostaining of wing imaginal discs (punctuate staining in anterior cells); hh-N^HA under en-Gal4 in hh ts2/ts2 animals at the non-permissive temperature. The text has this: Expression of Hh-Nu in P cells of the wing imaginal disc results in dpp-lacZ expression in the entire A compartment of the disc, and a consequent dramatic enlargement of the A compartment. Thus Hh-Nu appears to have a range of action at least five fold larger than that of wild-type Hh. However, since this and previous experiments have been performed in the presence of endogenous Hh, it could not be ruled out that the observed extension of Hh activity depends on, or is even mediated by, endogenous Hh-Np whose range might be expanded in the presence of Hh-Nu. To address this, we created a situation where Hh-Nu is the sole source of Hh in imaginal discs by expressing hh-N^HA in P cells under en-Ga14 in hh^{ts2/ts2} animals that were shifted to the non-permissive temperature during early larval stages. […] Thus Hh-Nu alone is able to associate with Ptc and signal in vivo. The cholesterol anchor of Hh appears to be required for the sequestration of Hh by Ptc, since untethered Hh is seemingly unrestricted in its range. We cannot currently rule out the possibility that Hh-Nu is also, at least partially, sequestered by Ptc but that extracellular Hh-Nu levels are abnormally high and saturate the capacity of Ptc.
hh-temperature sensitive animals were generated using the hh^ts2 allel (Ma et al., 1993) balanced over the TM6b[Tb]balancer. […]

B1: Hh-Nu (cholesterol-free N-terminal portion of Drosophila Hedgehog, product of the hh-N^HA transgene) (ligand, not shown: small tags and cut ends)
chain: not shown
modifications: no C-terminal cholesterol (cholesterol-free)
notes: Expressed in P cells of wing imaginal discs under en-Gal4 in hh ts2/ts2 animals; also called unmodified Hh-Nu; untethered Hh
Consider B1, for which the binding result is “binds”.

The record behind these values is patent US20030165897A1 (published 2003).
